The source of these data is patent publication US11306156.

Assay [1] concerns the target tissue factor (TF) antigen (UniProt P13726). The experiment in a line: SPR, Fab captured on anti-penta-His surface, TF as analyte, 1:1 fit.
For assay [2] the target is unchanged. The experiment in a line: SPR, Fab captured on anti-penta-His surface, TF as analyte, 1:1 fit; against wild-type D3H44 Fab. For orientation: SPR reads the build-up and loss of mass on a sensor chip optically.
Assay [3] shares this target. The experiment in a line: SPR (ProteOn XPR36), Fab captured on anti-penta-His surface, TF as analyte, 1:1 fit.
Assay [4] has the same target. The experiment in a line: SPR (ProteOn XPR36), Fab captured on anti-penta-His surface, TF as analyte; reference is the wild-type D3H44 Fab.
For assay [5] the target is unchanged. In words: SPR, His-captured Fab, TF as analyte, 1:1 fit.
Assay [6] has the same target. In words: SPR, His-captured Fab, TF as analyte; against wild-type D3H44 Fab.
Assay [7] shares this target. In words: SPR (ProteOn XPR36): His-tagged Fab captured on anti-penta-His surface, TF as analyte, 1:1 fit; batch C (+).
Assay [8] has the same target. In words: SPR (ProteOn XPR36), His-tagged Fab captured on anti-penta His, TF as analyte, 1:1 fit.
Assay [9] shares this target. The experiment in a line: SPR (ProteOn XPR36), His-tagged Fab captured on anti-penta His, TF as analyte; against wild-type D3H44 Fab.

tissue factor (TF) antigen, sequence (P13726 33-251 limits assumed): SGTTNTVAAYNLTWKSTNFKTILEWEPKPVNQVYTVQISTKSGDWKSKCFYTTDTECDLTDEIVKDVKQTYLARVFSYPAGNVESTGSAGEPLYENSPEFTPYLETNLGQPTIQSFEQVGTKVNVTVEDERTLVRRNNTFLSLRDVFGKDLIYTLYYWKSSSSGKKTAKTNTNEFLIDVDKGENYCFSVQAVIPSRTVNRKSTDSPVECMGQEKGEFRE

As for “D3H44 H1L1 Fab heterodimer of LCCA Set # 9740 (H1 L143R; L1 Q124E_V133E)”, the Kd (as a rule, a measure of binding affinity in units of concentration) in assay [1] is 0.2 nM. Also, the change in median KD compared to wild type, -(log(KD design)-log(KD wt)) in assay [2] is -0.09.

On to “D3H44 Fab heterodimer H1L1 of LCCA set 9226 (H1 L124E_L143D_K145T; L1 Q124K_V133G_S176R_T178R)”, for which, in assay [3], the Kd was 0.16 nM. The substance further came in with a Change in median values of KD of h1l1 Fab heterodimer compared to wild type (-(log(KD design)-log(KD wt))) in [4] of -0.02.

“D3H44 Fab heterodimer H1L1 of LCCA Set # 9052, 9051 and 9050 (H1 A139G_F174V_V190A; L1 S131T_L135F_S176F_T178F)” came in with a dissociation constant Kd in assay [5] of 0.14 nM. The substance further returned a Change in median values of KD compared to wild type (-(log(KD design)-log(KD wt))) in [6] of 0.06 log.

The substance “D3H44 H1L1 Fab heterodimer of LCCA Set # 9098 (H1 L124A_Q179K; L1 Q124E_V133W_S176T_T178E_T180E)” gave a Kd in assay [1] of 0.17 nM. The substance further yielded a change in median KD compared to wild type, -(log(KD design)-log(KD wt)) in assay [2] of -0.03.

With “D3H44 H1L1 Fab heterodimer of LCCA set 9632 (H1 L143E_K145T_Q179D; L1 Q124R_T178R)”, in assay [7], the Change in median values of KD of h1|1 Fab heterodimer compared to wild type (-(log(KD design)-log(KD wt))) is 0.04 log units and the dissociation constant (Kd) was 0.14 nM.

In assay [7], “D3H44 H1L1 Fab heterodimer of LCCA set 9741 (H1 L143R; L1 Q124E_V133E_Q160F)” returned a Change in median values of KD of h1|1 Fab heterodimer compared to wild type (-(log(KD design)-log(KD wt))) of 0.34 log units and an equilibrium dissociation constant (Kd) of 0.07 nM.

“D3H44 Fab heterodimer H1L1 of LCCA set 9188 (H1 L124E_L143D_K145M; L1 Q124K_V133G_S176R_T178R)” came in with a Kd in assay [3] of 0.13 nM. In addition, the Change in median values of KD of h1l1 Fab heterodimer compared to wild type (-(log(KD design)-log(KD wt))) in [4] worked out at 0.09.

In assay [3], “D3H44 Fab heterodimer H1L1 of LCCA sets 9523 and 9524 (H1 L124R_S186R; L1 V133G_S176D_T178D)” gave a Kd of 0.2 nM. The substance further showed a Change in median values of KD of h1l1 Fab heterodimer compared to wild type (-(log(KD design)-log(KD wt))) in assay [4] of -0.1.

With “D3H44 H1L1 Fab heterodimer of LCCA Set # 10549 (H1 L45P_K145T_Q179E; L1 P44F_S131K)”, the Kd in assay [1] is 0.35 nM. The substance further gave a change in median KD compared to wild type, -(log(KD design)-log(KD wt)) in assay [2] of -0.35.

In the case of “D3H44 Fab heterodimer H1L1 of LCCA set 9361 (H1 L124R_D146N_Q179K; L1 V133G_S176D_T178E_T180E)”, the Kd in assay [3] came to 0.16 nM. In addition, the Change in median values of KD of h1l1 Fab heterodimer compared to wild type (-(log(KD design)-log(KD wt))) in assay [4] is -0.01.

As for “D3H44 Fab heterodimer H1L1 of LCCA sets 9536 and 9526 (H1 L124R_S186R; L1 V133G_S176D_T178D_T180E)”, the Kd in [3] came to 0.17 nM. The Change in median values of KD of h1l1 Fab heterodimer compared to wild type (-(log(KD design)-log(KD wt))) in assay [4] is -0.04.

“D3H44 Fab heterodimer H1L1 of LCCA Set # 9732 and 9733 (H1 L143K; L1 Q124E_V133D_S176L)” yielded a dissociation constant Kd in assay [5] of 0.28 nM. Besides, the Change in median values of KD compared to wild type (-(log(KD design)-log(KD wt))) in assay [6] is -0.25 log.

Regarding “D3H44 Fab heterodimer H1L1 of LCCA Set # 9071 (H1 F174V; L1 S131T_S176F_T178F)”, the equilibrium dissociation constant (Kd) in [5] was 0.21 nM. In addition, the Change in median values of KD compared to wild type (-(log(KD design)-log(KD wt))) in assay [6] was -0.12 log.

Substance “D3H44 Fab heterodimer H1L1 of LCCA Set # 9731 (H1 L143K; L1 Q124E_V133D)” yielded a dissociation constant Kd in assay [5] of 0.28 nM. In assay [6], this substance registered a Change in median values of KD compared to wild type (-(log(KD design)-log(KD wt))) of -0.26 log.

Regarding “D3H44 H1L1 Fab heterodimer of LCCA Set # 9559 (H1 L124W_L143E_K145T_Q179E; L1 Q124K_V133A_S176T_T178R)”, in assay [1], the Kd came out at 0.27 nM. Also, the change in median KD compared to wild type, -(log(KD design)-log(KD wt)) in assay [2] is -0.24.

On to “D3H44 Fab heterodimer H1L1 of LCCA set 9181 (H1 L124E_L143D_K145M; L1 Q124K_V133G_S176R_T178K)”, for which, in assay [3], the dissociation constant Kd is 0.22 nM. Further, the Change in median values of KD of h1l1 Fab heterodimer compared to wild type (-(log(KD design)-log(KD wt))) in [4] is -0.15.

Consider “D3H44 H1L1 Fab heterodimer of LCCA sets 9911, 9909 and 9907 (H1 S188L; L1 WT)”, for which, in [7], the Change in median values of KD of h1|1 Fab heterodimer compared to wild type (-(log(KD design)-log(KD wt))) amounted to 0.27 log units and the dissociation constant (Kd) came out at 0.09 nM.

Turning to “D3H44 Fab heterodimer H1L1 of LCCA Set # 9099 (H1 L124A_Q179K; L1 Q124E_V133W_S176T_T178L_T180E)”, the Kd in assay [5] is 0.19 nM. The substance also yielded a Change in median values of KD compared to wild type (-(log(KD design)-log(KD wt))) in assay [6] of -0.09 log.

Turning to “D3H44 Fab heterodimer, H1 L143K_D146G / L1 Q124E_V133D (H1L1 Fab of LCCA Set # 9734)”, the Kd in [8] is 0.26 nM. The substance further gave a Change in median values of KD of h1|1 Fab heterodimer compared to wild type (-(log(KD design)-log(KD wt))) in assay [9] of -0.22.

With “D3H44 Fab heterodimer H1L1 of LCCA Set # 9769, 9767, 9763, 9759, 9761, 9760 and 9773 (H1 Q179K; L1 Q124E_Q160E_T180E)”, the Kd in assay [5] is 0.32 nM. In addition, in assay [6], the Change in median values of KD compared to wild type (-(log(KD design)-log(KD wt))) was -0.31 log.

For the substance “D3H44 Fab heterodimer H1L1 of LCCA Set # 9062 and 9063 (H1 A139W_S188L; L1 F116A_L135V)”, the Kd in assay [5] came out at 0.17 nM. The Change in median values of KD compared to wild type (-(log(KD design)-log(KD wt))) in assay [6] is -0.02 log.

The substance “D3H44 H1L1 Fab heterodimer of LCCA Set # 9054 (H1 A139G_Q179K_V190A; L1 Q124E_L135W_Q160E_T180E)” came in with a Kd in [1] of 0.14 nM. For the same substance, the change in median KD compared to wild type, -(log(KD design)-log(KD wt)) in assay [2] stood at 0.05.

For “D3H44 H1L1 Fab heterodimer of LCCA Set # 9742 (H1 L143R; L1 Q124E_V133E_Q160M)”, in assay [1], the equilibrium dissociation constant (Kd) stood at 0.25 nM. The substance also displayed a change in median KD compared to wild type, -(log(KD design)-log(KD wt)) in assay [2] of -0.21.

For “D3H44 Fab heterodimer H1L1 of LCCA sets 9257 and 9259 (H1 L124E_L143E_K145M; L1 Q124K_V133G_S176R_T178K)”, the dissociation constant (Kd) in [3] came out at 0.24 nM. In assay [4], this substance registered a Change in median values of KD of h1l1 Fab heterodimer compared to wild type (-(log(KD design)-log(KD wt))) of -0.19.

For the substance “D3H44 Fab heterodimer, H1 H172R_S186R / L1 Q38E_Q124E_Q160E_T180E (H1L1 Fab of LCCA Set # 9075)”, the Kd in assay [8] came out at 0.17 nM. Also, in assay [9], the Change in median values of KD of h1|1 Fab heterodimer compared to wild type (-(log(KD design)-log(KD wt))) was -0.03.

In the case of “D3H44 Fab heterodimer, H1 L124E_L143E_K145M / L1 Q124K_V133G_Q160K_S176R (H1L1 Fab of LCCA Set # 9248 and 9249)”, the equilibrium dissociation constant (Kd) in assay [8] was 0.28 nM. In addition, the Change in median values of KD of h1|1 Fab heterodimer compared to wild type (-(log(KD design)-log(KD wt))) in assay [9] was -0.26.

Turning to “D3H44 Fab heterodimer, H1 L124R_S186R / L1 Q124E_V133G_S176D_T178D_T180E (H1L1 Fab of LCCA Set # 9513)”, the dissociation constant (Kd) in assay [8] turned out to be 0.26 nM. Further, the Change in median values of KD of h1|1 Fab heterodimer compared to wild type (-(log(KD design)-log(KD wt))) in [9] was -0.21.

“D3H44 H1L1 Fab heterodimer of LCCA Set # 9111 (H1 L124E_A125S_H172R_K228D; L1 S121K_V133G_S176R)” registered a Kd in assay [1] of 0.13 nM. Also, in assay [2], the change in median KD compared to wild type, -(log(KD design)-log(KD wt)) worked out at 0.09.
